{"source": "patent US20020012949A1", "about": "“Assay systems for leptin-enhancing agents” (priority 1997, published 2002)", "molecular_target": "T1, OB-R (Homo sapiens, UniProt P48357)", "T1 construct": "The cytoplasmic domain and full-length human OB-R was cloned by PCR; expressed in transfected cells; host or cells: COS-7", "T1 sequence (P48357 22-1165)": "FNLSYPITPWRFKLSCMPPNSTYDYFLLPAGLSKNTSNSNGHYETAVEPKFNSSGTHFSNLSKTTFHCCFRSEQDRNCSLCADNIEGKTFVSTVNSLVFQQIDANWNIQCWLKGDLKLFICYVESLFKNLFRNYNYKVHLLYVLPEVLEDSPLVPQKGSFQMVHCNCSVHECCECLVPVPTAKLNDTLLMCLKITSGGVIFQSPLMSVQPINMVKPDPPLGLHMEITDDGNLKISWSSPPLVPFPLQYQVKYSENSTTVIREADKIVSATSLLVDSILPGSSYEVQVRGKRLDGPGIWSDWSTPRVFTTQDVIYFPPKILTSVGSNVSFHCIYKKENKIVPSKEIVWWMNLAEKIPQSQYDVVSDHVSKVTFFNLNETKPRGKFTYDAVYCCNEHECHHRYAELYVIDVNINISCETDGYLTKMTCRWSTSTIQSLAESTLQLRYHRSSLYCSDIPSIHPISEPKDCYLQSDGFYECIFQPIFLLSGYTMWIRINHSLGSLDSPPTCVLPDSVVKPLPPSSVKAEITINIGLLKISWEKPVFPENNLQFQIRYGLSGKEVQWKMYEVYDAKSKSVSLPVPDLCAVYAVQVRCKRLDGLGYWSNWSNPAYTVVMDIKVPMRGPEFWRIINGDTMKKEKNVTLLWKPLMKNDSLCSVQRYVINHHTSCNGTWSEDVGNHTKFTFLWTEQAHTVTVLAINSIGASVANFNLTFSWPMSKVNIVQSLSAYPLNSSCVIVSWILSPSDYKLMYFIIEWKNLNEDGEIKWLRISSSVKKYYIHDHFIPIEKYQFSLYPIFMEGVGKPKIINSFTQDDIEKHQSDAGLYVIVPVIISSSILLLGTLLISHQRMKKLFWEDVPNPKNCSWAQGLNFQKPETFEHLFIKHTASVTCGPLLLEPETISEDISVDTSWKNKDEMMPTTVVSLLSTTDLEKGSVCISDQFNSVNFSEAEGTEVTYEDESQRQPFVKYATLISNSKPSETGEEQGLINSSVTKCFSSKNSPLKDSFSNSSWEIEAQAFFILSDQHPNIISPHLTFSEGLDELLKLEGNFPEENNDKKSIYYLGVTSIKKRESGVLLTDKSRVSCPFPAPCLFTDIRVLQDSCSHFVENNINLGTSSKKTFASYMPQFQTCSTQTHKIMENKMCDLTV", "experiment": "Luciferase reporter gene assay (3(G3)-Cy6-LUC), leptin stimulation of COS cells expressing wild type OB-R", "assay_type": "cell-based", "conditions": "100 ng/ml leptin for 24 hours, stimulated vs non-stimulated", "protocol": "The cytoplasmic domain and full-length human OB-R was cloned by PCR using human fetal liver and adipocyte cDNA (Clontech) and cloned into the expression vectors pCMX and pMT21. Chimeric receptors were constructed by fusing the extracellular domain and transmembrane domain of TrkC (amino acids 1 to 458) to the cytoplasmic domain of OB-R (amino acids 865-1165). A triple myc epitope tag was added at the C-terminus of all OB-R constructs (18). Truncation and point mutant constructs were generated by PCR and the sequences of all constructs were verified. Expression constructs were transfected into COS-7 cells using lipofectamine (GIBCO-BRL); 36-48 hours after transfection, cells were starved for either 2 hour,s for chimeric receptors or overnight for full-length receptors prior to stimulation.\nExpression constructs (1 μg) for OB-R, OB-RY1141F, OB-RY986F, OB-RY1078, 1079F, and OB-RY986, 1141F were co-transfected with 1 μg of 3(G3)-Cy6-LUC and 0.1 μg of pCMX.LacZ into COS-7 cells (6-well dishes) using lipofectamine. The day after transfection, media was changed to serum-free OptiMEM (GIBCO-BRL) and then treated with 100 ng/ml murine leptin (PeproTech) or human leptin (R&D Systems) for 24 hours. […] Luciferase and β-galactosidase activities were measured in cell lysates (30) and luciferase activity was normalized to β-galactosidase activity to control for transfection differences. […]"}
{"substance": "leptin: the product of the obese gene, secreted by adipocytes; ligand of OB-R", "values": [{"measurement": "induction of luciferase activity", "value": 6, "unit": "fold"}]}
